Measured values reported in PMC7733947, “The Key Glycolytic Enzyme Phosphofructokinase Is Involved in Resistance to Antiplasmodial Glycosides” (mBio, 2020).

Test system: Nc1ncnc2c1ncn2[C@@H]1O[C@H](COP(=O)(O)O)[C@@H](O)[C@H]1O
Test: purified protein

Substance	Km [mM]
PfHAD1 (Plasmodium falciparum 3D7)	4.11 ± 0.88
PfHAD2 (Plasmodium falciparum 3D7)	4.09 ± 0.55
